For assay [1], the target named is T1, cMet (HT29 cells) (Homo sapiens, UniProt P08581). As to the kind of experiment: Competition for peptide binding with unlabeled peptides. Set-up: endogenous in cells; host or cells: HT29 (cMet+), SW480 (cMet-), HT29 with siRNA knockdown. To be noted: unlabeled peptide 0-400 μM, 5 μM QQT*-Cy5.5. The procedure:
(§1) We used a competition assay between labeled QQT*-Cy5.5 and either unlabeled QQT* or recombinant human hepatocyte growth factor (HGF, […], R&D) to validate the specific binding of QQT**-Cy5.5 to HT29 cells. Approximately 10^3 HT29 cells were grown to about 70% confluence on coverslips in triplicate. Unlabeled QQT* and either TLQ* peptide at 0, 25, 50, 100, 200 and 400 μM, or HGF at 0, 5, 10, 25, 50 or 100 ng/mL, were first added and incubated with the cells for 30 min (i.e., minutes) at 4° C. The cells were washed with 1×PBS three times and then incubated with 5 μM QQT*-Cy5.5 for another 30 min at 4° C. The cells were washed three times with 1×PBS and then fixed with 4% PFA for 10 min. The cells were washed with 1×PBS and mounted with ProLong Gold reagent containing DAPI (Invitrogen). Confocal fluorescence images were collected at each concentration using a 63× objective (Leica SP5 Inverted 2-Photon FLIM Confocal), and intensities from five cells in three independent images were quantified using custom Matlab (Mathworks, Natick, MA) software.

The subject of assay [2] is phosphorylation of cMet, AKT and ERK1/2. As to the kind of experiment: Effect of peptide on cell signaling (Western blot). The format is cell-based, human. To be noted: HT29 cells; 10, 30, 120 min; HGF 25 ng/mL; peptide 5 or 100 μM. The procedure:
HT29 cells were treated with serum-free medium overnight for starvation before incubation with hHGF (hHGF, 294-HG-005, R&D) or peptides. Recombinant Human HGF Protein was added to HT29 cells at concentrations of 25 ng/ml for 10, 30, or 120 min in separate wells. QQT*-Cy5.5 and TLQ*-Cy5.5 were added at concentrations of 5 or 100 μM for 10, 30, and 120 min. Peptides were added at concentrations of 5 and 100 μM for 10, 30, or 120 min. Cells were then washed with 1×PBS and lysed with Pierce RIPA buffer containing Halt Phosphatase Inhibitor Cocktail (Thermo Fisher) and Halt Protease Inhibitor Cocktail (Thermo Fisher). Protein contents were quantified by Bicinchoninic Acid Assay (BCA). Anti-cMet antibody (Cell Signaling, #8198), phospho-cMet (Tyr1234/1235) antibody (Cell Signaling, #3077), anti-AKT antibody (Cell Signaling, #4691), anti-phospho-AKT antibody (Cell Signaling, #9271), anti-ERK1/2 antibody (Abcam, #ab17942), anti-phospho-ERK1/2 antibody (Abcam, #ab50011), and anti-tubulin antibody (Invitrogen, #32-2600) were used per manufacturer's instructions.

In the next assay the target is T2, mouse cMet-ECD (Mus musculus, UniProt P16056).
T2 construct: incubated with purified mouse cMet-ECD protein (50622-M08H, Sino Biological); purchased Sino Biological 50622-M08H
As to the kind of experiment: Pull-down assay. Type of assay: binding. The conditions noted are these: peptide immobilized on EHS beads. On the procedure: Interactions between peptide and mouse cMet were evaluated using a pull-down assay (Paul et al., Methods 54:387-395 (2011)). Peptides were immobilized on EHS active beads (17-0906-01, GE), and incubated with purified mouse cMet-ECD protein (50622-M08H, Sino Biological). After washing, bound proteins were detected by Western blot (FIG. 18).

The target of assay [3] is T1, cMet (HT29 cells). As to the kind of experiment: Competition for peptide binding with HGF. The conditions noted are these: HGF 0 to 100 ng/mL; confocal microscopy. Set-up: endogenous in cells; host or cells: HT29 (cMet+), SW480 (cMet-), HT29 with siRNA knockdown. The procedure:
as §1

Assay [4] concerns human colon organoids (adenoma, SSA, normal). As to the kind of experiment: In vivo endoscopic imaging of patient-derived colon organoids implanted in NOD/SCID mice. To be noted: NOD/SCID mouse; topical administration. The procedure:
Acute colitis was induced in 8-week-old NOD.Cg-Prkdcscid Il2rgtm1Wjl/SzJ mice (005557, The Jackson Laboratory)^40,41 by feeding them with 3.0% DSS (molecular weight 40,000; Cat #AAJ6360622; Alfa Aesar) dissolved in drinking water for 5 days (d). At 6 d, the donor organoids were released from the type I collagen gel, dissociated by EDTA, and washed with BSA-containing PBS as with the passage procedure. Approximately 2.5-5E5 cell aggregates in 200 μL were transplanted per mouse as previously described^42,43. Organoids were instilled into colonic lumen as a suspension by using a syringe and a thin flexible catheter 4 cm in length and 2 mm in diameter. The anal verge was glued for 6 hours after infusion to prevent luminal contents from being excreted immediately, then glue were removed by Ethanol. Mice were maintained as usual after the transplantation. The mice were housed in pathogen-free conditions and supplied water ad libitum under controlled conditions of humidity (50±10%), light (12/12 hour light/dark cycle) and temperature (25° C.). […]
(§2) A rigid small animal endoscope (Karl Sorz Veterinary Endoscopy) was inserted into the rectum (Liu et al., Gut 62:395-403 (2013)) and used to image the distal colon^45. […] The distance between the endoscope tip and the anus, and the clockwise location of polyps, were recorded. […] A ratio of the fluorescence and reflectance images was determined to correct for differences in distance and geometry over the image field-of-view (FOV) (Joshi et al., Endoscopy 48:A1-A13 (2016)). […]
The mean fluorescence intensity was used to calculate the target-to-background (T/B) ratios. Images were processed and analyzed using custom software in Matlab (Mathworks) (Joshi et al., Gastroenterology 152:1002-1013 e1009 (2017)). Matlab software was used to quantify the fluorescence intensity. The fluorescence intensity of regions of interest (ROI) was corrected by taking the ratio of fluorescence to reflectance, the fluorescence of interested region was taken as target (T), and adjacent mouse normal colon region with equal area was picked for use as background (B)^46. […]

The subject of assay [5] is flat and polyploid colonic adenomas. As to the kind of experiment: In vivo endoscopic imaging in CPC;Apc mice. The conditions noted are these: CPC;Apc mouse; topical / intra-rectal, 100 μM, 5 min incubation. The procedure: A CPC;Apc mouse model that can develop spontaneous adenomas in distal colon epithelium^44 was also used. Under the control of the Cdx2 promoter (CDX2P-9.5NLS-Cre), Cre recombinase can sporadically delete the adenomatous polyposis coli (APC) allele, resulting in polyploid colonic adenomas or flat lesions. We collected images from mice (n=8) that ranged in age from 7 to 10 months.
In vivo imaging was performed with approval of the University of Michigan Committee on the Use and Care of Animals. CPC;Apc mice were used for in vivo imaging. […]
as §2
The mean fluorescence intensity was used to calculate the target-to-background (T/B) ratios. Images were processed and analyzed using custom software in Matlab (Mathworks) (Joshi et al., Gastroenterology 152:1002-1013 e1009 (2017)). Matlab software was used to quantify the fluorescence intensity. […]

Assay [6] has as its target T3, cMet (Homo sapiens, UniProt P08581). As to the kind of experiment: Confocal microscopy of binding to HT29 (cMet+) versus SW480 (cMet−) cells. The format is cell-based. On the procedure:
(§3) HT29, SW480, S114 and NIH3T3 cells were inoculated in 12-well cell culture plates with circle glass coverslips to about 80% confluence. The cells were blocked with 1×PBS plus 2% BSA for 1 hour at 4° C., then were incubated with 5 μM peptides for 10 min at RT in the dark, washed thrice, and fixed with 4% PFA for 5 min, washed with 1×PBS, then mounted on glass slides with ProLong Gold reagent containing DAPI (Invitrogen, Waltham, MA). As positive control, after blocking with 2% BSA for 1 hour at 4° C., A 1:3000 dilution of primary monoclonal rabbit anti-cMet antibody (Cell Signaling Technology, #8198) was incubated with cells overnight at 4° C. Afterward, the cells were washed thrice with 1×PBS and further incubated with a 1:500 dilution of AF488-labeled secondary goat ant-rabbit immunoglobulin G antibody (Life Technologies, #A-11029) for 1 hour at RT, washed thrice, and then mounted on glass slides with ProLong Gold reagent containing DAPI. Confocal fluorescence images were collected using a 63× oil-immersion objective (Leica SP5 Inverted 2-Photon FLIM Confocal). Fluorescence intensities from five cells in two independent images were quantified using custom Matlab (Mathworks) software.

Assay [7] deals with T3, cMet. As to the kind of experiment: Confocal microscopy of binding to S114 (cMet+) versus NIH3T3 (cMet−) cells. The format is cell-based, mouse. On the set-up: expressed in transfected cells; host or cells: S114 (NIH 3T3 mouse fibroblasts transformed with human HGF/SF and Met); NIH3T3 as cMet- control. The conditions noted are these: 5 μM peptide. The source says:
Human CRC cell lines HT29, SW480, CCD841 and mouse embryonic fibroblast cell line NIH 3T3 were obtained from the American Type Culture Collection (ATCC, Manassas, VA). The S114 cell line comprised NIH 3T3 cells transformed with human HGF/SF and Met and expressed cMet. We used McCoy's 5A Medium (Gibco) for culturing HT29 cells and Dulbecco's Modified Eagle Medium (Gibco) was used to culture SW480, NIH3T3 and S114 cells. Eagle's Minimum Essential Medium (Lonza) was used for CCD841 cells. All cells were cultured at 37° C. in 5% CO2, and supplemented with 10% fetal bovine serum (FBS). The cells were passaged using 0.25% trypsin containing EDTA (Mediatech, Manassas, VA). Cell numbers were quantitated on a hemocytometer. Peptide synthesis reagents were obtained from Anaspec (Anaspec, Fremont, CA) or AAPPTEC (AAPPTEC, Louisville, KY), were of the highest grade available (>99% purity), and were used without further purification. […]
HT29, SW480, S114 and NIH3T3 cells were inoculated in 12-well cell culture plates with circle glass coverslips to about 80% confluence. […] Confocal fluorescence images were collected using a 63× oil-immersion objective (Leica SP5 Inverted 2-Photon FLIM Confocal). Fluorescence intensities from five cells in two independent images were quantified using custom Matlab (Mathworks) software.

Assay [8] deals with T3, cMet. As to the kind of experiment: siRNA knockdown of cMet in HT29 cells, binding by confocal microscopy. The format is cell-based. The procedure: as §3
We knocked down cMet protein levels with siRNAs and then evaluated the binding of QQT*-Cy5.5 and TLQ*-Cy5.5 to the surface of si-cMet-transfected HT29 cells to validate specific peptide binding. We used siRNA1 (SASI_Hs01_00133002, Sigma) for HT29, siRNA2 (SASI_WI_00000001, Sigma) for S114, and MISSION® siRNA #1 Universal Negative Control (SIC001, Sigma) for a negative control. We transfected cells with Lipofectamine 2000 (11668027, Invitrogen) per manufacturer instructions. Knockdown of cMet was confirmed by Western blot (FIG. 18). The cells were incubated with 5 μM peptide for 5 min at RT (i.e., room temperature), and then fixed and mounted on glass slides with ProLong Gold reagent containing DAPI, as previous described. […] Confocal fluorescence images were collected using a 63× oil-immersion objective (Leica SP5 Inverted 2-Photon FLIM Confocal).

[9] abbreviates: confocal microscopy, 5 μM peptide.

Entries after “also recorded” stand apart in the source; their conditions may differ. Ends that are not written are not given here.

T1 sequence (P08581 25-1390): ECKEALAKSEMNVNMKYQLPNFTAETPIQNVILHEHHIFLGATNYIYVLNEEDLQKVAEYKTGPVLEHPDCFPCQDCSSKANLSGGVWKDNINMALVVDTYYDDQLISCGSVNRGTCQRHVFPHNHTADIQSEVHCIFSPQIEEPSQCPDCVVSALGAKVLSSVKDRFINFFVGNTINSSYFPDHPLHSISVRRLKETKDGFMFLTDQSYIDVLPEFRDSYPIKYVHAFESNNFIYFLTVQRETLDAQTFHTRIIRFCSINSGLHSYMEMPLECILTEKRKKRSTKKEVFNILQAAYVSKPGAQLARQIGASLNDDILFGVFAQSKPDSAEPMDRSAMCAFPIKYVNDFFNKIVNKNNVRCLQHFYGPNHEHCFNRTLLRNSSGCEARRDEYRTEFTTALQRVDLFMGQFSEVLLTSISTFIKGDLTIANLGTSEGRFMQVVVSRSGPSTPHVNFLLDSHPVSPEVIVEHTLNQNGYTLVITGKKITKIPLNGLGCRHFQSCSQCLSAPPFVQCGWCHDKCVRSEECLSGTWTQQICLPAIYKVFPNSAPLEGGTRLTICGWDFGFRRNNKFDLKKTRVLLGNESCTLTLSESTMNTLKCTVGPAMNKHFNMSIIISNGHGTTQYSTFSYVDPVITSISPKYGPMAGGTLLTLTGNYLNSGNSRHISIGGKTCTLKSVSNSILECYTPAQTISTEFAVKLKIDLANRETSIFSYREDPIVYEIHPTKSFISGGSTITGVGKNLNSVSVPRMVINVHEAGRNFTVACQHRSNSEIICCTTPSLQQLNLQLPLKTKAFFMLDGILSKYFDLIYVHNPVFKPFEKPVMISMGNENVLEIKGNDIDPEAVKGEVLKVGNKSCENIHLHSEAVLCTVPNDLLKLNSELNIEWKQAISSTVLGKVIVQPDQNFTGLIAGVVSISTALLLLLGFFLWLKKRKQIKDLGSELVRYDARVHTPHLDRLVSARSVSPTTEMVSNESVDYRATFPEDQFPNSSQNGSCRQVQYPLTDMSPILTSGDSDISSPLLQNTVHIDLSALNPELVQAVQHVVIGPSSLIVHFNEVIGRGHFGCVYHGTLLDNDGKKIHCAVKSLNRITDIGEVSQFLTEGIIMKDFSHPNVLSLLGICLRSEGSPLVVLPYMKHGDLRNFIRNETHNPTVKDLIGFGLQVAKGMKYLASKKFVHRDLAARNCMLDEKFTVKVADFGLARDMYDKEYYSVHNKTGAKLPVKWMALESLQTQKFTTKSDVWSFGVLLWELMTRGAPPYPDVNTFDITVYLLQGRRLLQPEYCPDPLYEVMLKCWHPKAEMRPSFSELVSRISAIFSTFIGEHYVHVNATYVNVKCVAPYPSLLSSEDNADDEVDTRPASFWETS
T3 sequence (P08581 25-1390): as above
T2 sequence (P16056 25-931 limits assumed): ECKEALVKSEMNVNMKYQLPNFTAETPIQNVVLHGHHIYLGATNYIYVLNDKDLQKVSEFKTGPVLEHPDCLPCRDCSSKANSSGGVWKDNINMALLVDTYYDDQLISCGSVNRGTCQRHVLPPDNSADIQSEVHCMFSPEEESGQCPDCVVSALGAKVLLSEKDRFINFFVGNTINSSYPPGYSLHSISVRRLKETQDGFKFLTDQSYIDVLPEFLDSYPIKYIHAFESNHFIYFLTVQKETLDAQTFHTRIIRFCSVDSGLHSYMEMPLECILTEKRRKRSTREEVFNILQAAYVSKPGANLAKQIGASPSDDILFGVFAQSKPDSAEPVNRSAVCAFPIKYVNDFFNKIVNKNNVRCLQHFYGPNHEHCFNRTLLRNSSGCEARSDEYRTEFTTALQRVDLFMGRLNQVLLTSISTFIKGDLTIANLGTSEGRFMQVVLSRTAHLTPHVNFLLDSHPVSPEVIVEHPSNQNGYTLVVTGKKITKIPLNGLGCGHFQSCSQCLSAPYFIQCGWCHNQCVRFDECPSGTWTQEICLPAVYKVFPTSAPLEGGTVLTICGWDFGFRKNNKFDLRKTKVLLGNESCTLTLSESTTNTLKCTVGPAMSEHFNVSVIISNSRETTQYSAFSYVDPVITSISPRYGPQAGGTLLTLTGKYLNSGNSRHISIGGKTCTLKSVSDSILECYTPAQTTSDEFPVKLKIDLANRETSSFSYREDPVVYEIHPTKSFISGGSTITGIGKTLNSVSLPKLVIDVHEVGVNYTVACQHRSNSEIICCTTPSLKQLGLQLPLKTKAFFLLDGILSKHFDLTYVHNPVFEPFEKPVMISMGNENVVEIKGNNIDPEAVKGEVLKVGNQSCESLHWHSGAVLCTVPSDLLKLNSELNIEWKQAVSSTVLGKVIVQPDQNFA

As to QQTNWSL [QQT*], in the assay with cMet (HT29 cells) [1], the “change of QQT*-Cy5.5 fluorescence intensity on addition of unlabeled peptide” value is “decrease significantly; also recorded: significant decrease”. Besides, in [2], the “phosphorylation of cMet and downstream AKT and ERK1/2” value was “no change in phosphorylation”. Further, in the assay with mouse cMet-ECD, the “binding to mouse cMet-ECD, Western blot band” value was “strong band”. The “change of binding to HT29 cells with addition of HGF” value with cMet (HT29 cells) [3] was “no competition”.

On to “TLQ*-Cy5.5: scrambled control sequence TLQWNQS (SEQ ID NO:3) labeled with Cy5.5 via GGGSK linker (TLQWNQSGGGS-{K(Cy5.5)-NH2})”, for which, in [4], the “fluorescence signal from human SSA organoid in vivo” value is listed as “minimal signal; also recorded: little signal”, the “fluorescence signal from human adenoma organoid in vivo” value is “little signal; also recorded: minimal signal” and the “fluorescence signal from human normal organoid in vivo” value is given as “little signal; also recorded: minimal signal”. In addition, in assay [5], the “NIR fluorescence image of flat lesion” value is given as “little signal; also recorded: minimal signal” and the “NIR fluorescence image of polyp” value is listed as “minimal signal”. Further, the “mean intensity HT29 versus SW480 cells” value with cMet [6] is on record as 0.85 fold change. Moreover, in the assay with cMet [6] (setting [9]), the “binding to surface of HT29 cells (cMet+)” value was “minimal binding” and the “signal / binding to SW480 cells (cMet−)” value is listed as “little binding”. In addition, in the assay with cMet [7], the “binding to surface of S114 cells (cMet+)” value is given as “minimal binding” and the “signal / binding to NIH3T3 cells (cMet−)” value is given as “little binding”. For the same substance, the “intensity reduction with knockdown of cMet” value in the assay with cMet [8] (HT29 siCL versus sicMet) worked out at 0.96 fold. Moreover, in the assay with cMet [8] (HT29 transfected with siCL non-targeting siRNA, confocal microscopy, 5 μM peptide), the “binding to surface of control HT29 cells” value is on record as “minimal binding”. The “fluorescence intensity / binding with HT29 knockdown cells” value with cMet [8] (HT29 transfected with sicMet-targeting siRNA, confocal microscopy) is on record as “little signal; also recorded: little binding”.

On to TLQWNQS (Artificial Seuqence) [TLQ*], for which the “change of QQT*-Cy5.5 fluorescence intensity on addition of unlabeled peptide” value with cMet (HT29 cells) [1] is “no significant change”.
